Assays:
[1] = tested on: P1, H2N-GPQGIAGQR(GPO)4GG-OH
[2] = tested on: lipopeptide LP1, CH3(CH2)16COHN-GPQGIAGQR(GPO)4GG-OH

Sequence of recombinant form of human MMP-9, containing the catalytic and fibronectin domains of the enzyme (chain, as listed by the source): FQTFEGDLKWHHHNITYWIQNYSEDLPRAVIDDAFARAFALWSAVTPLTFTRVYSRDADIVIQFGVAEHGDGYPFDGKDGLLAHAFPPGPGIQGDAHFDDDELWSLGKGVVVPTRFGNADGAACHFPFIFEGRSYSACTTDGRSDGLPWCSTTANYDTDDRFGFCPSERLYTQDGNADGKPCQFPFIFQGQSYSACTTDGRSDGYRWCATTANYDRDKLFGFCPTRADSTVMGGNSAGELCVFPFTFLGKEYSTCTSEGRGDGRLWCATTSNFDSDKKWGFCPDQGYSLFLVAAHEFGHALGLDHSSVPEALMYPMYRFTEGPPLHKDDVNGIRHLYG
Sequence of trypsin (P00760 24-246): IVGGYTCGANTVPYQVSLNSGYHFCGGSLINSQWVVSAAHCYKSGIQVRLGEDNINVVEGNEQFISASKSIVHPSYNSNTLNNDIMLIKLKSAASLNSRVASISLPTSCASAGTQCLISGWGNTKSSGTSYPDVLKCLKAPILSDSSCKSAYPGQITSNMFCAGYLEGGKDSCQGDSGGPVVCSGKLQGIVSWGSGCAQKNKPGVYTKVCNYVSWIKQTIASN

Substance | cleavage of the peptide, products analyzed by RP-HPLC [1] | cleavage of the lipopeptide, products analyzed by RP-HPLC [2] | release of encapsulated carboxyfluorescein from LP1/DSPC liposomes (fluorescence at 518 nm, five hours) [2] | release of encapsulated carboxyfluorescein from LP1/DSPC liposomes (fluorescence at 518 nm) [2]
recombinant form of human MMP-9, containing the catalytic and fibronectin domains of the enzyme | The peptide P1 (Rpn=0.04) was efficiently cleaved by the target enzyme MMP-9 | the lipopeptide LP1 (Rpn=0.11) was partially cleaved by MMP-9 (in 2 hours, FIG. 2A) | In five hours, about 55% of the encapsulated dye was found to be released | –
trypsin | efficiently cleaved by the target enzyme MMP-9 as well as by a non-specific proteolytic enzyme, trypsin | – | – | trypsin, once again failed to release the dye from the liposome

Source: patent US20060210549
